Source: PMC8211825, “Molecular mechanism of calcium induced trimerization of C1q-like domain of otolin-1 from human and zebrafish” (Scientific Reports, 2021)
Changes are numbered by the printed parent chain. Numbers in names are those of the source. Where “and” joins values, the source holds several entries; their conditions need not be identical. Equal values may be shown once.

B1: C1q-like domain of otolin-1 from human (domain or fragment, UniProt A6NHN0 338-473, looked up)
chain: ARVPRSAFSAGLSKPFPPPNIPIKFEKILYNDQGNYSPVTGKFNCSIPGTYVFSYHITVRGRPARISLVAQNKKQFKSRETLYGQEIDQASLLVILKLSAGDQVWLEVSKDWNGVYVSAEDDSIFTGFLLYPEETS
notes: gC1q (C1q-like) domain of human otolin-1, UniProt A6NHN0; printed monomer MW 17.0 kDa; Subcloned in pQE-80 L; The tag is known only from TALON purification and a 6xHis Western blot; also called hOtolC1q; native hOtolC1q
B2: hOtolC1q E470A (domain or fragment, human, UniProt A6NHN0 338-473, looked up)
chain: B1 chain with E133A
notes: gC1q (C1q-like) domain of human otolin-1, UniProt A6NHN0, natural SNP variant E470A (rs3921595); also called E470A variant; natural variant hOtolC1q E470A; source: 0.1% NP40 substitute added to the cell suspension
B3: C1q-like domain of otolin-1 from zebrafish (domain or fragment)
chain: not shown
notes: gC1q (C1q-like) domain of zebrafish otolin-1, UniProt A5PN28; printed monomer MW 17.1 kDa; Subcloned in pQE-80 L; also called dOtolC1q; native dOtolC1q

Molecular target: the molecule itself
Assay: AUC; sedimentation velocity, c(s) analysis in SEDFIT; 10 mM CaCl2; 10 mM HEPES pH 7.0, 500 mM NaCl, 5% glycerol; 20 °C, 50,000 rpm; protein about 0.1, 0.25 and 0.5 mg/ml; self-association of the gC1q domain into trimers

Q: For B1, which “stoichiometry N” value is on record?
A: 3

Q: Which “stoichiometry N” value does the source give for B2 here?
A: 3

Q: With B3 as the protein, how does the “stoichiometry N” value read?
A: 2 and 3
